Measurements published in the supplement of paper PMC7125110.
± gives the standard error. Fewer inactive variants are shown than the library holds.

B1: glmS ribozyme (parent)
chain: AUAAAAGCGCCAGAACUACAGAAAUGUAGUUGACGAGGAGGAGGUUUAUCGAAUUUUCGGCGGAUGCCUCCAAA

Key:
Details in all cases: with glucosamine-6-phosphate
glucosamine-6-phosphate [1] = variants of: B1; assay: self-cleavage kobs at 640 uM GlcN6P; higher = faster cleavage; RNA array
In short: (§1)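 Glucosamine-6-phosphate (40 μM to 10 mM) in HEPES/KCl/Mg(OAc)2 buffer was flowed over sequenced MiSeq chips, and tiles were imaged over ~14 h. Barcoded ribozyme variants there had been transcribed in situ by E. coli RNA polymerase and were tracked through a hybridised Cy3 probe at 37 °C. One- or two-exponential decay fits to per-tile medians, normalised to baseline and to non-cleaving reference variants, gave kobs. kcat and KM came from weighted Michaelis–Menten fits across concentrations.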

glucosamine-6-phosphate [2] = variants of: B1; assay: self-cleavage kobs at 2500 uM GlcN6P; higher = faster cleavage; RNA array
In short: as §1

glucosamine-6-phosphate [3] = variants of: B1; assay: self-cleavage kobs at 10000 uM GlcN6P; higher = faster cleavage; RNA array
In short: as §1

Variant	self-cleavage kobs at 640 uM GlcN6P (glucosamine-6-phosphate [1]) [s⁻¹]	self-cleavage kobs at 2500 uM GlcN6P (glucosamine-6-phosphate [2]) [s⁻¹]	self-cleavage kobs at 10000 uM GlcN6P (glucosamine-6-phosphate [3]) [s⁻¹]
C16A U30G G35A U69C	< 1e-05	< 1e-05	–
G7U G43U U45A C58A	< 1e-05	< 1e-05	–
A6G A52C C58G G63A G66C	< 1e-05	< 1e-05	–
C34U C50G U54A	0.000235 ± 6.6e-05	0.000344 ± 0.0001	–
A33G C34U A42G G51U C58U G59C	< 1e-05	< 1e-05	–
A39C U46A U56G	4.61e-05 ± 1.8e-05	–	–
A6C A14C U31C A36G A48G	< 1e-05	–	< 1e-05
C16U A33G C68G	5.07e-05 ± 2.3e-05	–	–
C11A A36U U47C	< 1e-05	< 1e-05	–
A6C G38U G62C C70U	< 1e-05	–	–
C11A G40C C50U	< 1e-05	< 1e-05	–
C10G G40A C70U	< 1e-05	< 1e-05	–
G7U C58G C61G	0.000789 ± 0.00019	–	–
A12G A33G G40C A52G U54A C58A	< 1e-05	–	–
U30G U31C A39U	0.000202 ± 6.1e-05	–	0.00122 ± 0.00026
C8U U46G G51U G66U C70G C71U	< 1e-05	–	–
G9U A42G U45A C58G	< 1e-05	< 1e-05	–

Variant	self-cleavage kobs at 640 uM GlcN6P (glucosamine-6-phosphate [1]) [s⁻¹]	self-cleavage kobs at 2500 uM GlcN6P (glucosamine-6-phosphate [2]) [s⁻¹]	self-cleavage kobs at 10000 uM GlcN6P (glucosamine-6-phosphate [3]) [s⁻¹]
G43U G51C G59C G62U C68U	< 1e-05	–	–
C34G G60A G62C U69G	< 1e-05	–	–
C10U A33G G40U C50G	< 1e-05	–	–
C8G A42U	< 1e-05	–	< 1e-05
G7A A33G C68G	0.00031 ± 0.00013	6.13e-05 ± 2.5e-05	–
A12C C16A A33U	< 1e-05	–	–
U49C A52U G62U	< 1e-05	–	–
C16U A39C U65G	0.000131 ± 3.8e-05	8.33e-05 ± 2.6e-05	0.000837 ± 0.00011
C58G C68U C71G	5.51e-05 ± 2.4e-05	–	–
A15C C16G A39C	3.83e-05 ± 1.7e-05	0.000198 ± 3.4e-05	–
G13U C16U G37U U47G U57A C58U G60U	< 1e-05	–	–
G43C C61U G62A	< 1e-05	–	–
C16A U31C G41C	< 1e-05	< 1e-05	–
U55G G66A C70G	0.000126 ± 2.1e-05	0.000206 ± 4.7e-05	–
G9U A15G U55A	< 1e-05	–	–
C11G A12U A42G	< 1e-05	< 1e-05	–
